Laboratory results reported in patent US20130005646A1 (Novo Nordisk, published 2013).
Starred links: 1 amine or outer side, 2 acyl side, 3 side chain; linkers in the order of their positions; H or OH if unused. Positions of bridges follow the written chain, without caps; N, C: chain ends. Groups on a side chain read outwards from the residue. No end group written: not given here. *: point of attachment. C20 diacid = O=C(O)CCCCCCCCCCCCCCCCCCC(=O)*; C18 diacid = O=C(O)CCCCCCCCCCCCCCCCC(=O)*; γGlu = O=C(O)[C@H](CCC(=O)[*:2])N[*:1]; AEEA = NCCOCCOCC(=O)O

T1: rat calcitonin (a) receptor (rat, UniProt P32214 25-516)
T1 sequence (looked up): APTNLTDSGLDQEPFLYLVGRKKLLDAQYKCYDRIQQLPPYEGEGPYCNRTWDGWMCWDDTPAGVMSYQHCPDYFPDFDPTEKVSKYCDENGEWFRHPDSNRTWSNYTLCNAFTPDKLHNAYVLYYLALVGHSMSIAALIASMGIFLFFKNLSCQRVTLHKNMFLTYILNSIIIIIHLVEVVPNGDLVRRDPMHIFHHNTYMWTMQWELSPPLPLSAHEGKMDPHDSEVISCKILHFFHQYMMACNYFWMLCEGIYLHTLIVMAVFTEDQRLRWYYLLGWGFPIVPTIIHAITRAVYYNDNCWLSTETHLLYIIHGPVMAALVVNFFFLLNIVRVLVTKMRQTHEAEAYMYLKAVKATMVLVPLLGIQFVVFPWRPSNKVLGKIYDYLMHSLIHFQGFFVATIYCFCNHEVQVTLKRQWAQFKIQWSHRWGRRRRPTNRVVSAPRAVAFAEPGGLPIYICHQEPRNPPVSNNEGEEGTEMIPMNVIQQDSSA

T2: human amylin 3(a) receptor (human calcitonin receptor + RAMP-3) (human, UniProt P30988 25-474; O60896 24-148)
T2 sequence (looked up) 1: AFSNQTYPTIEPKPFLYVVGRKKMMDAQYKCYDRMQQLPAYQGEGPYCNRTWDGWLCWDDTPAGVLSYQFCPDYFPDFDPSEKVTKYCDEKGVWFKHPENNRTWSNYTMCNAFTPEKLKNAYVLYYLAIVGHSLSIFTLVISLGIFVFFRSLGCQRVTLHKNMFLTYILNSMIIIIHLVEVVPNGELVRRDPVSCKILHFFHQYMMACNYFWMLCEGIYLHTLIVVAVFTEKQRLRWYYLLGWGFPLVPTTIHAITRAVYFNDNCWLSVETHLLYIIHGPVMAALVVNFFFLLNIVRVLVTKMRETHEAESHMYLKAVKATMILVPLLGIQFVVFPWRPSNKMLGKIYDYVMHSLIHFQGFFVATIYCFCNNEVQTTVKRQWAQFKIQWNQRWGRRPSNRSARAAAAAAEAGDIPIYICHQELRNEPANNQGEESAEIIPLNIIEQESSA
T2 sequence (looked up) 2: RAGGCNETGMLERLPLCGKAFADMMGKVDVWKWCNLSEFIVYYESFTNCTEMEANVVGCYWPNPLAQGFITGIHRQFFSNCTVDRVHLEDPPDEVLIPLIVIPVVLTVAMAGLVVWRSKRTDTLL

T3: rat amylin 3(a) receptor (rat calcitonin(a) receptor + rat RAMP3) (rat, UniProt P32214 25-516; Q9JJ73 23-147)
T3 sequence (looked up) 1: T1 sequence (looked up)
T3 sequence (looked up) 2: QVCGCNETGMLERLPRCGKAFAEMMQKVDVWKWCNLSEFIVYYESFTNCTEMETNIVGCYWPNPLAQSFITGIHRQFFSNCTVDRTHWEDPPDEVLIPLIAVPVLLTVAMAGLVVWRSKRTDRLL

T4: human calcitonin (a) receptor (human, UniProt P30988 25-474)
T4 sequence (looked up): T2 sequence (looked up) 1

B1: N-alpha-[(S)-4-Carboxy-4-(19-carboxynonadecanoylamino)butyryl]-[Gly1,Glu14,Arg17,Pro37]-pramlintide (peptide)
peptide: {C20 diacid-γGlu}-GCNTATCATQRLAEFLRHSSNNFGPILPPTNVGSNTP-NH2
modifications: disulfide 2-7
SMILES: CC[C@H](C)[C@H](NC(=O)[C@@H]1CCCN1C(=O)CNC(=O)[C@H](Cc1ccccc1)NC(=O)[C@H](CC(N)=O)NC(=O)[C@H](CC(N)=O)NC(=O)[C@H](CO)NC(=O)[C@H](CO)NC(=O)[C@H](Cc1c[nH]cn1)NC(=O)[C@H](CCCNC(=N)N)NC(=O)[C@H](CC(C)C)NC(=O)[C@H](Cc1ccccc1)NC(=O)[C@H](CCC(=O)O)NC(=O)[C@H](C)NC(=O)[C@H](CC(C)C)NC(=O)[C@H](CCCNC(=N)N)NC(=O)[C@H](CCC(N)=O)NC(=O)[C@@H](NC(=O)[C@H](C)NC(=O)[C@@H]1CSSC[C@H](NC(=O)CNC(=O)CC[C@H](NC(=O)CCCCCCCCCCCCCCCCCCC(=O)O)C(=O)O)C(=O)N[C@@H](CC(N)=O)C(=O)N[C@@H]([C@@H](C)O)C(=O)N[C@@H](C)C(=O)N[C@@H]([C@@H](C)O)C(=O)N1)[C@@H](C)O)C(=O)N[C@@H](CC(C)C)C(=O)N1CCC[C@H]1C(=O)N1CCC[C@H]1C(=O)N[C@H](C(=O)N[C@@H](CC(N)=O)C(=O)N[C@H](C(=O)NCC(=O)N[C@@H](CO)C(=O)N[C@@H](CC(N)=O)C(=O)N[C@H](C(=O)N1CCC[C@H]1C(N)=O)[C@@H](C)O)C(C)C)[C@@H](C)O
B2: N-alpha-[(S)-4-Carboxy-4-(19-carboxynonadecanoylamino)butyryl]-Gly-[His1,Glu14,Arg17,Pro37]-pramlintide (peptide)
peptide: {C20 diacid-γGlu}-GHCNTATCATQRLAEFLRHSSNNFGPILPPTNVGSNTP-NH2
modifications: disulfide 3-8
SMILES: CC[C@H](C)[C@H](NC(=O)[C@@H]1CCCN1C(=O)CNC(=O)[C@H](Cc1ccccc1)NC(=O)[C@H](CC(N)=O)NC(=O)[C@H](CC(N)=O)NC(=O)[C@H](CO)NC(=O)[C@H](CO)NC(=O)[C@H](Cc1c[nH]cn1)NC(=O)[C@H](CCCNC(=N)N)NC(=O)[C@H](CC(C)C)NC(=O)[C@H](Cc1ccccc1)NC(=O)[C@H](CCC(=O)O)NC(=O)[C@H](C)NC(=O)[C@H](CC(C)C)NC(=O)[C@H](CCCNC(=N)N)NC(=O)[C@H](CCC(N)=O)NC(=O)[C@@H](NC(=O)[C@H](C)NC(=O)[C@@H]1CSSC[C@H](NC(=O)[C@H](Cc2c[nH]cn2)NC(=O)CNC(=O)CC[C@H](NC(=O)CCCCCCCCCCCCCCCCCCC(=O)O)C(=O)O)C(=O)N[C@@H](CC(N)=O)C(=O)N[C@@H]([C@@H](C)O)C(=O)N[C@@H](C)C(=O)N[C@@H]([C@@H](C)O)C(=O)N1)[C@@H](C)O)C(=O)N[C@@H](CC(C)C)C(=O)N1CCC[C@H]1C(=O)N1CCC[C@H]1C(=O)N[C@H](C(=O)N[C@@H](CC(N)=O)C(=O)N[C@H](C(=O)NCC(=O)N[C@@H](CO)C(=O)N[C@@H](CC(N)=O)C(=O)N[C@H](C(=O)N1CCC[C@H]1C(N)=O)[C@@H](C)O)C(C)C)[C@@H](C)O
B3: N-epsilon1-[(S)-4-Carboxy-4-(19-carboxynonadecanoylamino)butyryl]-[Glu14,His17,His35]-pramlintide (peptide)
peptide: K([γGlu-C20 diacid])CNTATCATQRLAEFLHHSSNNFGPILPPTNVGSHTY-NH2
modifications: disulfide 2-7; N-terminus assumed
SMILES: CC[C@H](C)[C@H](NC(=O)[C@@H]1CCCN1C(=O)CNC(=O)[C@H](Cc1ccccc1)NC(=O)[C@H](CC(N)=O)NC(=O)[C@H](CC(N)=O)NC(=O)[C@H](CO)NC(=O)[C@H](CO)NC(=O)[C@H](Cc1c[nH]cn1)NC(=O)[C@H](Cc1c[nH]cn1)NC(=O)[C@H](CC(C)C)NC(=O)[C@H](Cc1ccccc1)NC(=O)[C@H](CCC(=O)O)NC(=O)[C@H](C)NC(=O)[C@H](CC(C)C)NC(=O)[C@H](CCCNC(=N)N)NC(=O)[C@H](CCC(N)=O)NC(=O)[C@@H](NC(=O)[C@H](C)NC(=O)[C@@H]1CSSC[C@H](NC(=O)[C@@H](N)CCCCNC(=O)CC[C@H](NC(=O)CCCCCCCCCCCCCCCCCCC(=O)O)C(=O)O)C(=O)N[C@@H](CC(N)=O)C(=O)N[C@@H]([C@@H](C)O)C(=O)N[C@@H](C)C(=O)N[C@@H]([C@@H](C)O)C(=O)N1)[C@@H](C)O)C(=O)N[C@@H](CC(C)C)C(=O)N1CCC[C@H]1C(=O)N1CCC[C@H]1C(=O)N[C@H](C(=O)N[C@@H](CC(N)=O)C(=O)N[C@H](C(=O)NCC(=O)N[C@@H](CO)C(=O)N[C@@H](Cc1c[nH]cn1)C(=O)N[C@H](C(=O)N[C@@H](Cc1ccc(O)cc1)C(N)=O)[C@@H](C)O)C(C)C)[C@@H](C)O
B4: N-epsilon21-[2-(2-{2-[2-(2-{2-[(S)-4-Carboxy-4-(17-carboxyheptadecanoylamino)butyrylamino]ethoxy}ethoxy)acetylamino]ethoxy}ethoxy)acetyl]-[Glu14,His17,Lys21,Glu … (peptide)
peptide: KCNTATCATQRLAEFLHHSSK([AEEA-AEEA-γGlu-C18 diacid])NFGPILPPTNVGSETY-NH2
modifications: disulfide 2-7; N-terminus assumed
SMILES: CC[C@H](C)[C@H](NC(=O)[C@@H]1CCCN1C(=O)CNC(=O)[C@H](Cc1ccccc1)NC(=O)[C@H](CC(N)=O)NC(=O)[C@H](CCCCNC(=O)COCCOCCNC(=O)COCCOCCNC(=O)CC[C@H](NC(=O)CCCCCCCCCCCCCCCCC(=O)O)C(=O)O)NC(=O)[C@H](CO)NC(=O)[C@H](CO)NC(=O)[C@H](Cc1c[nH]cn1)NC(=O)[C@H](Cc1c[nH]cn1)NC(=O)[C@H](CC(C)C)NC(=O)[C@H](Cc1ccccc1)NC(=O)[C@H](CCC(=O)O)NC(=O)[C@H](C)NC(=O)[C@H](CC(C)C)NC(=O)[C@H](CCCNC(=N)N)NC(=O)[C@H](CCC(N)=O)NC(=O)[C@@H](NC(=O)[C@H](C)NC(=O)[C@@H]1CSSC[C@H](NC(=O)[C@@H](N)CCCCN)C(=O)N[C@@H](CC(N)=O)C(=O)N[C@@H]([C@@H](C)O)C(=O)N[C@@H](C)C(=O)N[C@@H]([C@@H](C)O)C(=O)N1)[C@@H](C)O)C(=O)N[C@@H](CC(C)C)C(=O)N1CCC[C@H]1C(=O)N1CCC[C@H]1C(=O)N[C@H](C(=O)N[C@@H](CC(N)=O)C(=O)N[C@H](C(=O)NCC(=O)N[C@@H](CO)C(=O)N[C@@H](CCC(=O)O)C(=O)N[C@H](C(=O)N[C@@H](Cc1ccc(O)cc1)C(N)=O)[C@@H](C)O)C(C)C)[C@@H](C)O
B5: N-alpha-[(S)-4-Carboxy-4-(19-carboxynonadecanoylamino)butyryl]-[His1,Glu14,His17,Pro37]-pramlintide (peptide)
peptide: {C20 diacid-γGlu}-HCNTATCATQRLAEFLHHSSNNFGPILPPTNVGSNTP-NH2
modifications: disulfide 2-7; not fully specified; printed as N-alpha-[(S)-4-Carboxy-4-(19-carboxynonadecanoylamino)butyryl]-[His1,Glu14,His17,Pro37]-pramlintide
B6: N-alpha-[(S)-4-Carboxy-4-(19-carboxynonadecanoylamino)butyryl]-[His1,Glu14,His17,His35]-pramlintide (peptide)
peptide: {C20 diacid-γGlu}-HCNTATCATQRLAEFLHHSSNNFGPILPPTNVGSHTY-NH2
modifications: disulfide 2-7; not fully specified; printed as N-alpha-[(S)-4-Carboxy-4-(19-carboxynonadecanoylamino)butyryl]-[His1,Glu14,His17,His35]-pramlintide

These binders were tested against T1, rat calcitonin (a) receptor (assay: cell-based or functional assay).

Binder	CTa receptor rat EC50
B1	370 pM
B2	114 pM
B3	437 pM
B4	2060 pM
B5	109 pM
B6	1040 pM

Each binder was assayed against T2, human amylin 3(a) receptor (human …) (assay: cell-based or functional assay).

Binder	Amylin receptor human EC50
B1	36 pM
B2	25.5 pM
B3	142 pM
B4	184 pM
B5	92.5 pM
B6	122 pM

Each binder was assayed against T3, rat amylin 3(a) receptor (rat …) (assay: cell-based or functional assay).

Binder	Amylin receptor rat EC50
B1	300 pM
B2	151 pM
B3	106 pM
B4	504 pM
B5	121 pM
B6	224 pM

Each binder was assayed against T4, human calcitonin (a) receptor (assay: cell-based or functional assay).

Binder	CTa receptor human EC50
B1	55 pM
B2	39.5 pM
B3	228 pM
B4	216 pM
B5	67 pM
B6	85.5 pM
